Laboratory results from article PMC8778164, “Towards Complete Tumor Resection: Novel Dual-Modality Probes for Improved Image-Guided Surgery of GRPR-Expressing Prostate Cancer” (Pharmaceutics, 2022).
Like-named read-outs stand apart in the source and are kept apart here.

Legend:
[1] = In vivo SPECT/CT imaging, VOI quantification; conditions: male, Balb/c nu/nu, mouse, tumor and kidneys (in vivo VOIs), iv, total radioactivity; from SPECT VOI %IA/mL, 2 h p.i., i.v., non-blocked, n = 3; read-out: Tumor-to-kidney ratio (SPECT)
Procedure: Seven-week-old male Balb/c nu/nu-specific and opportunistic pathogen-free (SOPF) mice (Janvier Labs, Le Genest-Saint-Isle, France) were housed in individually ventilated cages, with 4 mice per cage. Upon arrival, mice were acclimated for 1 week, with access to food and water ad libitum. […]
Mice (n = 3 per probe) were intravenously injected in the tail vein with 200 µL of Kolliphor® HS 15 (Merck, Haarlerbergweg, The Netherlands) in PBS (0.06 mg/mL) containing [^111In]In-12 (13.40 ± 0.76 MBq, ~670 pmol) or [^111In]In-15 (17.50 ± 1.78 MBq, ~875 pmol). […] The CT and registered, attenuation-corrected SPECT images were analyzed using PMOD (PMOD 3.9, Zurich, Switzerland) and quantification was performed by placing volumes of interest (VOIs) around the tumors and kidneys. An Eppendorf tube filled with a solution of indium-111 of a known activity was measured to determine the calibration factor. The total activity measured in the VOI was divided by the volume of all VOI pixel values and multiplied by the calibration factor to obtain the percentage of injected activity per volume unit (%IA/mL).

[2] = Distribution coefficient (LogD7.4), shake-flask method; type: physicochemical; conditions: n-octanol/PBS pH 7.4, n = 3; read-out: Log D7.4
Procedure: Distribution coefficients (LogD7.4) for the ^111In-labeled compounds were determined by a shake-flask method. The experiments were performed in triplicate for each radioligand. A sample containing the radioligand (0.5–2.0 MBq) was dissolved in 1 mL solution of phosphate-buffered saline (0.01 M, pH 7.4) and n-octanol (v:v = 1:1). The vials were vortexed vigorously and then centrifuged at 10,000 rpm for 3 min, for phase separation. Samples (10 μL) of each phase were taken out and analyzed using a gamma counter. LogD7.4 values were calculated, using the following equation: LogD7.4 = log {(counts in n-octanol phase)/(counts in PBS phase)}.

[3] = Ex vivo optical (fluorescence, IVIS) imaging of organs; type: in vivo, mouse; conditions: male, Balb/c nu/nu, mouse, iv, ex vivo radiant efficiency
Procedure: (§1) Seven-week-old male Balb/c nu/nu-specific and opportunistic pathogen-free (SOPF) mice (Janvier Labs, Le Genest-Saint-Isle, France) were housed in individually ventilated cages, with 4 mice per cage. Upon arrival, mice were acclimated for 1 week, with access to food and water ad libitum. Mice were subcutaneously inoculated on the right shoulder with PC-3 cells (5 × 10^6 cells suspended in 100 µL of 1/3 Matrigel (Corning Inc., Corning, NY, USA) and 2/3 Hank’s balanced salt solution (Gibco). PC-3 xenografts were allowed to grow for 3 weeks. Tumor sizes were 391 ± 173 mm^3 at the start of the studies. All animal experiments were approved by the Animal Welfare Committee of the Erasmus MC and were conducted in agreement with institutional guidelines (license number: AVD101002017867, 28 September 2017).
(§2) Before gamma counter measurements, the tumor half, pancreas, kidneys, lungs, small intestine, large intestine, liver, muscle, and bone were placed in two petri dishes and ex vivo optical imaging was performed with the IVIS Spectrum system (Perkin Elmer, Waltham, MA, USA) using the following settings for all measurements: FOV 12.6 cm, medium binning, f2, 0.5 s exposure with an excitation/emission filter of 640 nm/680 nm. Living Image version 4.5.2 software (Perkin Elmer) was used to perform data analysis by drawing a region of interest around the organ/tissue to quantify the radiant efficiency {(photons/second/cm^2/steradian)/(μW/cm^2)}.

[4] = tested on: PC-3-xenograft Balb/c nu/nu mice; assay: as above; type: in vivo, mouse; conditions: ex vivo after dissection, ex/em 640/680 nm
Procedure: as §1, §2

[5] = blocked with 150 nmol unlabeled NeoB, n = 1
[6] = non-blocked, n = 3, listed as [111In]In‐15

SMILES: CC(C)CC(CC(C)C)NC(=O)[C@H](Cc1c[nH]cn1)NC(=O)CNC(=O)[C@@H](NC(=O)[C@H](C)NC(=O)[C@H](Cc1c[nH]c2ccccc12)NC(=O)[C@H](CCC(N)=O)NC(=O)[C@@H](Cc1ccccc1)NC(=O)CCOCCOCCOCCOCCNC(=O)[C@H](CCCCNC(=O)OC1CCCC2C=NN=C(c3ccc(CNC(=O)CCCCC[N+]4=C(/C=C/C=C/C=C5N(C)c6ccc(S(=O)(=O)O)cc6C5(C)C)C(C)(C)c5cc(S(=O)(=O)[O-])ccc54)cc3)C2CC1)NC(=O)CN1CCN(CC(=O)O)CCN(CC(=O)O)CCN(CC(=O)O)CC1)C(C)C (stereo partly shown) [[^111In]In-15, metal not drawn]
- tissue to tissue ratio at 2 h [1]: 0.49 ± 0.05
- logD [2]: -1.75 ± 0.09
- tissue to tissue ratio ([3]; tumor and kidney, blocked with 150 nmol unlabeled NeoB, n = 1, read-out: Tumor-to-kidney ratio (fluorescence)): 0.24
- tissue to tissue ratio ([3]; tumor and kidney, non-blocked, n = 3, read-out: Tumor-to-kidney ratio (fluorescence)): 0.59 ± 0.14
- tissue to tissue ratio ([3]; tumor and liver, blocked with 150 nmol unlabeled NeoB, n = 1, read-out: Tumor-to-liver ratio (fluorescence)): 0.84
- tissue to tissue ratio ([3]; tumor and liver, non-blocked, n = 3, read-out: Tumor-to-liver ratio (fluorescence)): 1.96 ± 0.57
- tissue to tissue ratio ([3]; tumor and muscle, blocked with 150 nmol unlabeled NeoB, n = 1, read-out: Tumor-to-muscle ratio (fluorescence)): 1.54
- tissue to tissue ratio ([3]; tumor and muscle, non-blocked, n = 3, read-out: Tumor-to-muscle ratio (fluorescence)): 4.5 ± 1.87
- tissue to tissue ratio ([3]; tumor and pancreas, blocked with 150 nmol unlabeled NeoB, n = 1, read-out: Tumor-to-pancreas ratio (fluorescence)): 1.25
- tissue to tissue ratio ([3]; tumor and pancreas, non-blocked, n = 3, read-out: Tumor-to-pancreas ratio (fluorescence)): 0.95 ± 0.18
- Fluorescent signal, bone (average radiant efficiency) [4, 5]: 0.55 × 10^8 p/sec/cm^2/sr per µW/cm
- Fluorescent signal, kidneys (average radiant efficiency) [4, 5]: 6.09 × 10^8 p/sec/cm^2/sr per µW/cm
- Fluorescent signal, large intestine (average radiant efficiency) [4, 5]: 0.49 × 10^8 p/sec/cm^2/sr per µW/cm
- Fluorescent signal, liver (average radiant efficiency) [4, 5]: 1.75 × 10^8 p/sec/cm^2/sr per µW/cm
- Fluorescent signal, lungs (average radiant efficiency) [4, 5]: 2.93 × 10^8 p/sec/cm^2/sr per µW/cm
- Fluorescent signal, muscle (average radiant efficiency) [4, 5]: 0.96 × 10^8 p/sec/cm^2/sr per µW/cm
- Fluorescent signal, pancreas (average radiant efficiency) [4, 5]: 1.17 × 10^8 p/sec/cm^2/sr per µW/cm
- Fluorescent signal, small intestine (average radiant efficiency) [4, 5]: 0.38 × 10^8 p/sec/cm^2/sr per µW/cm
- Fluorescent signal, tumor (average radiant efficiency) [4, 5]: 1.47 × 10^8 p/sec/cm^2/sr per µW/cm
- Fluorescent signal, bone (average radiant efficiency) ([4]; non-blocked, n = 3): 0.74 ± 0.24 × 10^8 p/sec/cm^2/sr per µW/cm
- Fluorescent signal, kidneys (average radiant efficiency) ([4]; non-blocked, n = 3): 7.80 ± 0.92 × 10^8 p/sec/cm^2/sr per µW/cm^2
- Fluorescent signal, large intestine (average radiant efficiency) ([4]; non-blocked, n = 3): 0.94 ± 0.28 × 10^8 p/sec/cm^2/sr per µW/cm
- Fluorescent signal, liver (average radiant efficiency) ([4]; non-blocked, n = 3): 2.38 ± 0.21 × 10^8 p/sec/cm^2/sr per µW/cm
- Fluorescent signal, lungs (average radiant efficiency) ([4]; non-blocked, n = 3): 2.25 ± 0.70 × 10^8 p/sec/cm^2/sr per µW/cm
- Fluorescent signal, muscle (average radiant efficiency) ([4]; non-blocked, n = 3): 1.08 ± 0.16 × 10^8 p/sec/cm^2/sr per µW/cm
- Fluorescent signal, pancreas (average radiant efficiency) ([4]; non-blocked, n = 3): 5.12 ± 1.93 × 10^8 p/sec/cm^2/sr per µW/cm^2
- Fluorescent signal, small intestine (average radiant efficiency) ([4]; non-blocked, n = 3): 0.85 ± 0.04 × 10^8 p/sec/cm^2/sr per µW/cm
- Fluorescent signal, tumor (average radiant efficiency) ([4]; non-blocked, n = 3): 4.66 ± 1.35 × 10^8 p/sec/cm^2/sr per µW/cm^2
- Fluorescent signal, kidneys (average radiant efficiency) [4, 6]: 7.80 ± 0.92 × 10^8 p/sec/cm^2/sr per µW/cm
- Fluorescent signal, pancreas (average radiant efficiency) [4, 6]: 5.12 ± 1.93 × 10^8 p/sec/cm^2/sr per µW/cm
- Fluorescent signal, tumor (average radiant efficiency) [4, 6]: 4.66 ± 1.35 × 10^8 p/sec/cm^2/sr per µW/cm
